Results from patent publication US20190203224A1.

Key:
[1] = target: Brush border membrane vesicles (BBMV) prepared from midguts of third instar western corn rootworm (Diabrotica virgifera virgifera LeConte) larvae; putative receptor(s) on the BBMV (Diabrotica virgifera virgifera)
[2] = target: Brush border membrane vesicles (BBMV) prepared from midguts of third instar western corn rootworm (Diabrotica virgifera virgifera LeConte) larvae; putative receptor(s) on the BBMV (Diabrotica virgifera virgifera); remark: listed apart in the source

| Substance | Kd [1] | Bmax (binding site concentration) (pmole/ug BBMV) [2] |
| --- | --- | --- |
| Cry3Aa trypsin core (trypsin-truncated Cry3Aa core protein) (from UniProt P0A379 159-644) | 24 nM | 146 |
| Cry35Ab1 chymotrypsin core (chymotrypsin-truncated Cry35Ab1 core protein) (from UniProt Q939S9 1-354) | 2.31 nM | 31.7 |
